The values below come from patent publication US20240123029A1 (HUMANITAS MIRASOLE S P A, published 2024).

The test has as its target T1, SARS-CoV-2 S1 protein, His Tag (SARS-CoV-2, UniProt P0DTC2 16-685).
T1 construct: domain: S1; Bought
The test can be described thus: ELISA, His-tagged viral protein captured on nickel plates (6.25-50 pmol/mL).

B1: Purified C-reactive protein (CRP) (other)
chain: QTDMSRKAFVFPKESDTSYVSLKAPLTKPLKAFTVCLHFYTELSSTRGYSIFSYATKRQDNEILIFWSKDIGYSFTVGGSEILFEVPEVTVAPVHICTSWESASGIVEFWVDGKPRVRKSLKKGYTVGAEASIILGQEQDSFGGNFEGSQSLVGDIGNVNMWDFVLSPDEINTIYLGGPFSPNVLNWRALKYEVQGEVFTKPQLWP
Regarding B1, the binding result is “no binding (tested: CRP 3 µg/mL)”.
